# Experimental data from IntAct's records for PubMed 16343974.
# B1: Membrane protein (Human SARS coronavirus), P59596 (parent)
# chain: MADNGTITVEELKQLLEQWNLVIGFLFLAWIMLLQFAYSNRNRFLYIIKLVFLWLLWPVTLACFVLAAVYRINWVTGGIAIAMACIVGLMWLSYFVASFRLFARTRSMWSFNPETNILLNVPLRGTIVTRPLMESELVIGAVIIRGHLRMAGHSLGRCDIKDLPKEITVATSRTLSYYKLGASQRVGTDSGFAAYNRYRIGNYKLNTDHAGSNDNIALLVQ
# Variants of: B1
# Settings: with ncap_sars N
row,Variant,effect of a mutation on the interaction
1,L218A;L219A,with no effect
